± gives the standard deviation of the averaged measurements.
B1: library; a variant is named by its letters at N, in order (parent)
chain: GCUGUCACCGGUGUAUUACCCUAGUGGUCGACCGGUCUGAUGAGUCUNNNNNNAGACGAAACAGC

Tests used:
hypoxanthine [1] = variants of: B1; test: normalized RNA/DNA level with ligand (relative to sTRSVctl = 100) (log10 (% of sTRSVctl)); ligand: hypoxanthine (xanthine aptamer); higher = less ribozyme self-cleavage, higher mRNA level; details: ligand concentration (+) RNA-Seq: 5 mM, HEK293T, reporter: mCherry (pCS4076), ligand present: yes
Method in brief: (§1)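 Total RNA, extracted with EDTA 72 h after HEK293T cells were transfected with 4 µg per 6-well well of reporter-linked ribozyme switch library plasmids, was reverse-transcribed, amplified, barcoded and sequenced. Ligand, if used, was added 1 h before transfection. RNA level was derived from RNA reads divided by DNA reads and normalized to a spiked-in non-cleaving sequence or to the top sequences. This was multiplied by 100 and log10-transformed, with the top set of 25 sequences and a ≥100 DNA read minimum.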

hypoxanthine [2] = variants of: B1; test: normalized RNA/DNA level without ligand (relative to sTRSVctl = 100) (log10 (% of sTRSVctl)); ligand: hypoxanthine (xanthine aptamer); higher = less ribozyme self-cleavage, higher mRNA level; details: HEK293T, reporter: mCherry (pCS4076), ligand present: no
Method in brief: as §1

Variant	normalized RNA/DNA level with ligand (log10) (hypoxanthine [1])	normalized RNA/DNA level without ligand (log10) (hypoxanthine [2])
GCUGUCACCGGUGUAUUACCCUAGUGGUCGACCGGUCUGAUGAGUCUCGGGUCAGACGAAACAGC	2.01 ± 0.05	1.946 ± 0.017
GCUGUCACCGGUGUAUUACCCUAGUGGUCGACCGGUCUGAUGAGUCUGGGGUCAGACGAAACAGC	1.94 ± 0.025	1.84 ± 0.03
GCUGUCACCGGUGUAUUACCCUAGUGGUCGACCGGUCUGAUGAGUCUUGGGUCAGACGAAACAGC	1.98 ± 0.043	1.966 ± 0.0086
GCUGUCACCGGUGUAUUACCCUAGUGGUCGACCGGUCUGAUGAGUCUCGGGUGAGACGAAACAGC	1.893 ± 0.013	1.7 ± 0.05
GCUGUCACCGGUGUAUUACCCUAGUGGUCGACCGGUCUGAUGAGUCUGGGGUGAGACGAAACAGC	1.95 ± 0.027	1.562 ± 0.0074
GCUGUCACCGGUGUAUUACCCUAGUGGUCGACCGGUCUGAUGAGUCUUGGGUGAGACGAAACAGC	1.972 ± 0.0063	1.727 ± 0.016
GCUGUCACCGGUGUAUUACCCUAGUGGUCGACCGGUCUGAUGAGUCUAGGGUGAGACGAAACAGC	1.886 ± 0.012	1.54 ± 0.09
GCUGUCACCGGUGUAUUACCCUAGUGGUCGACCGGUCUGAUGAGUCUGGGGUUAGACGAAACAGC	1.98 ± 0.037	1.96 ± 0.034
GCUGUCACCGGUGUAUUACCCUAGUGGUCGACCGGUCUGAUGAGUCUUGGGUUAGACGAAACAGC	1.99 ± 0.023	1.9 ± 0.047
GCUGUCACCGGUGUAUUACCCUAGUGGUCGACCGGUCUGAUGAGUCUUGGUAAAGACGAAACAGC	1.902 ± 0.013	1.712 ± 0.011
GCUGUCACCGGUGUAUUACCCUAGUGGUCGACCGGUCUGAUGAGUCUCGGUACAGACGAAACAGC	1.88 ± 0.03	1.54 ± 0.084
GCUGUCACCGGUGUAUUACCCUAGUGGUCGACCGGUCUGAUGAGUCUUGGUACAGACGAAACAGC	1.98 ± 0.088	1.85 ± 0.041
GCUGUCACCGGUGUAUUACCCUAGUGGUCGACCGGUCUGAUGAGUCUUGGUAGAGACGAAACAGC	1.88 ± 0.028	1.55 ± 0.011
GCUGUCACCGGUGUAUUACCCUAGUGGUCGACCGGUCUGAUGAGUCUUGGUAUAGACGAAACAGC	1.907 ± 0.0077	1.707 ± 0.017
GCUGUCACCGGUGUAUUACCCUAGUGGUCGACCGGUCUGAUGAGUCUCGGUCAAGACGAAACAGC	2.011 ± 0.012	1.8 ± 0.026
GCUGUCACCGGUGUAUUACCCUAGUGGUCGACCGGUCUGAUGAGUCUGGGUCAAGACGAAACAGC	1.99 ± 0.068	1.91 ± 0.032
GCUGUCACCGGUGUAUUACCCUAGUGGUCGACCGGUCUGAUGAGUCUCGGUCCAGACGAAACAGC	2 ± 0.059	1.88 ± 0.066
GCUGUCACCGGUGUAUUACCCUAGUGGUCGACCGGUCUGAUGAGUCUUGGUCCAGACGAAACAGC	1.98 ± 0.035	1.93 ± 0.039
GCUGUCACCGGUGUAUUACCCUAGUGGUCGACCGGUCUGAUGAGUCUAGGUCCAGACGAAACAGC	1.962 ± 0.017	1.856 ± 0.0097
GCUGUCACCGGUGUAUUACCCUAGUGGUCGACCGGUCUGAUGAGUCUCGGUCGAGACGAAACAGC	1.9971 ± 7.8e-05	1.87 ± 0.023
GCUGUCACCGGUGUAUUACCCUAGUGGUCGACCGGUCUGAUGAGUCUGGGUCGAGACGAAACAGC	1.99 ± 0.02	1.78 ± 0.051

From the supplement of paper PMC6757056
